The text below walks through data of patent US20250205362A1, “LIPID NANOPARTICLES” (NATIONAL UNIVERSITY CORPORATION HOKKAIDO UNIVERSITY, priority 2022, published 2025).

Marks after values point to notes of the source that are not given here.

A short description of data set [1]: Blood test 24 hours after administration (toxicity). The class given is in vivo, mouse. The note with it: mice. The procedure: TTR-RNP-ssODN-loaded lipid nanoparticles were intravenously injected to BALB/c mice (female, 4 weeks old) at 2 mg RNP/kg body weight for two consecutive days. One week after the last injection, mice were anesthetized, weighed, and blood was collected. […] Hematological parameters in serum were measured by Oriental Yeast Co., Ltd.
In addition, for mice administered with Fluc mRNA-loaded lipid nanoparticles containing CL4F12-e-4, blood was collected 24 hours after administration and tested for each component. As a control, a blood test was also performed in a similar manner on mice that received PBS instead of the Fluc mRNA-loaded lipid nanoparticles. The results are shown in Table 14 (n=3, unpaired t-test). In the table, TP stands for total protein, AST for aspartate transaminase, ALB for albumin, LDH for […], BUN for blood urea nitrogen, γ-GT for γ-glutamyl transpeptidase, CRE for creatinine, T-CHO for total cholesterol, IP for inorganic phosphate, TG for triglyceride, HDL-C for high-density lipoprotein cholesterol, T-BIL for total bilirubin, and GLU for glucose, respectively. Additionally, ** indicates P<0.01, and * indicates P<0.05.

The next data set deals with TTR gene. The data set can be described thus: Measurement of TTR-KO activity (serum TTR protein, ELISA). In kind it is in vivo, mouse. The note with it: FIG. 8; CL4H6 LNP, sgTTR-G211; 7 days after administration. As for the experimental part:
Lipid nanoparticles encapsulating Cas9/sgTTR-RNP (Cas9/sgTTR-RNP-loaded lipid nanoparticles) were intravenously injected to BALB/c mice (female, 4 weeks old) at the indicated doses. One week after intravenous injection, the mice were euthanized, blood was collected, and serum was isolated by centrifugation. The TTR protein concentration in the serum was determined using a commercially available ELISA kit (Prealbumin ELISA Kit (mouse), Aviva Systems Biology) according to the manufacturer's protocol. The serum TTR protein concentration of untreated mice was taken as 100%, and the relative value (%) of the serum TTR protein concentration of mice administered with each lipid nanoparticle was taken as the knockout activity (TTR-KO activity) of the lipid nanoparticle.

Data set [2] in a line: Average particle diameter, PdI and zeta potential of lipid nanoparticles (dynamic light scattering). In kind it is physicochemical. As to conditions: TTR-RNP-ssODN-loaded LNP, sgTTR-G211, CL4H6/DSPC/cholesterol/PEG-DMG 50/10/40/3.5 mol%. As for the experimental part:
The mean particle diameter (number average value), ζ-mean particle diameter, and polydispersity index (PdI) of the lipid nanoparticles in PBS(−) (pH 7.4), as well as the zeta potential in 10 mM HEPES buffer (pH 7.4), were measured using an analyzing device, Zetasizer Nano ZS ZEN3600 (Malvern), which utilizes dynamic light scattering.

The nature of data set [3]: Encapsulation rate of lipid nanoparticles (Ribogreen). As to conditions: TTR-RNP-ssODN-loaded LNP, sgTTR-G211, CL4H6/DSPC/cholesterol/PEG-DMG 50/10/40/3.5 mol%. In kind it is physicochemical. As for the experimental part:
The encapsulation rate of the lipid nanoparticles was calculated by measuring the amount of encapsulated nucleic acid (the amount of ssODN in the case of RNP-ssODN) using an RNA intercalator Ribogreen (manufactured by Life Technologies).

Data set [4] is described as follows: Evaluation of biodistribution (fluorescently labeled RNP-ssODN). The class given is in vivo, mouse. As to conditions: mice iv 2 mg RNP/kg, 1 hour; labeled TTR-RNP-ssODN in CL4H6 LNP (ssODN(−): free RNP, no LNP). As for the experimental part:
For fluorescent labeling of lipid nanoparticles, the RNP-ssODN solution described above was mixed with a three-fold molar amount of a fluorescent molecule (DyLight 650 NHS ester) in DMSO and incubated for 30 min at ambient temperature in the dark. Unreacted fluorescent molecules were removed by ultrafiltration (Amicon Ultra-0.5, MWCO 3 kDa, Millipore).
Lipid nanoparticles encapsulating the obtained fluorescently labeled RNP-ssODN (fluorescently labeled RNP-ssODN-loaded lipid nanoparticles) were intravenously injected into BALB/c mice (female, 4 weeks old) at 2 mg RNP/kg body weight. One hour after intravenous injection, the mice were euthanized and various tissues, including blood, were collected. The collected blood was immediately diluted with 1% sodium dodecyl sulfate (SDS) solution. The collected tissues were immediately weighed and then homogenized in 1% sodium dodecyl sulfate (SDS) solution. The resulting homogenates were transferred to a black 96-well plate, and fluorescence was measured using a microplate reader (VarioskanLux, Thermo Fisher Scientific) at settings of λex=652 nm and λem=672 nm. Calibration curves were generated using fluorescently labeled RNP-ssODN-loaded lipid nanoparticles and blood or tissue homogenates similarly prepared from untreated mice. Biodistribution was expressed as the percentage of injected dose per tissue or blood (% injected dose).

[5] abbreviates: blood 24 hours after Fluc mRNA-loaded LNP containing CL4F12-e-4, n=3.

On to `CCCCCCC(CCCC)CCCCC(=O)OCCCCCCC(O)(CCCCCCOC(=O)CCCCC(CCCC)CCCCCC)CCCCN(CCC)CCC` (stereo not drawn) [CL4F12-e-4, 7-(4-(dipropylamino)butyl)-7-hydroxytridecane-1,13-diylbis(6-butyldodecanoate)], for which, in data set [1] (24 hours after Fluc mRNA-loaded LNP), the “toxicity (blood test)” value is listed as “no particular toxicity was observed”. For the same molecule, in data set [1] (setting [5]), the ALB was determined as 3.3 ± 0.1 g/dL, the ALT amounted to 39.3 ± 3.4 IU/L, the AMY is recorded as 1879.3 ± 136.2** IU/L and the AST is listed as 95.3 ± 3.4** IU/L. Further, in data set [1] (setting [5]), the BUN worked out at 25.3 ± 2.8 mg/dL, the CRE is listed as 0.1 ± 0.01 mg/dL, the Ca is 11.9 ± 0.4** mg/dL and the Cl is given as 98 ± 0 mEq/L. For the same molecule, in data set [1] (setting [5]), the GLU was 214 ± 8.2 mg/dL, the HDL-C was 78.7 ± 4.7** mg/dL, the IP is 11.1 ± 0.5 mg/dL and the K stood at 6.9 ± 0.2 mEq/L. Moreover, in data set [1] (setting [5]), the LDH was found to be 732 ± 39.6 IU/L, the Na was determined as 150.7 ± 1.9 mEq/L, the T-BIL is recorded as 0.03 ± 0.01 mg/dL and the T-CHO is on record as 154.7 ± 8.4** mg/dL. For the same molecule, in data set [1] (setting [5]), the TG is listed as 134 ± 52.8 mg/dL, the TP turned out to be 4.9 ± 0.1 g/dL and the γ-GT is on record as 6> IU/L.

B1: ssODN-TTR_3-24° C.-3′: ssODN pairing with sgTTR-G211, mismatch on one side; SEQ ID NO 18 (nucleic acid)
DNA: AAAAAAAAAAAAAAAAAAAAAAAAAAAAAAAAAAAAAAAAAAAAAAAAAAAAAAAAAAAAAATATAAAGGCTGTAAAAAAAAAAAAAAAAAAAAAAAAAAAAAAAAAAAAAAAAAAAAAAAAAAAAAAAAAA
In the case of B1, the “serum TTR (5′ versus 3′ mismatch site)” value in the data set on TTR gene is “about the same”. Further, in data set [2] (Table 13), the Number-average particle diameter came out at 73.1 nm, the PdI is listed as 0.200, the ζ-average worked out at 140.1 nm and the ζ-potential came out at 5.73 mV. In data set [3] (Table 13), the Encapsulation rate is 65.6%.

B2: ssODN-TTR_3-50° C.-5′: ssODN pairing with sgTTR-G211, mismatch on one side; SEQ ID NO 21 (nucleic acid)
DNA: AAAAAAAAAAAAAAAAAAAAAAAAAAAAAAAAAAAAAAAAAAAAAAAAAAAAAAAAAAATGTAGACGTGGCTGTAAAAAAAAAAAAAAAAAAAAAAAAAAAAAAAAAAAAAAAAAAAAAAAAAAAAAAAAAA
On to B2, for which the “serum TTR (5′ versus 3′ mismatch site)” value with TTR gene is on record as “about the same”. In data set [2] (Table 13), this molecule yielded a Number-average particle diameter of 86.8 nm, a PdI of 0.094, a ζ-average of 124.9 nm and a ζ-potential of 3.46 mV. The molecule also yielded an Encapsulation rate in data set [3] (Table 13) of 56.6%.

B3: ssODN-TTR_3-0%: ssODN, 0% matched with sgTTR-G211; SEQ ID NO 9 (nucleic acid)
DNA: AAAAAAAAAAAAAAAAAAAAAAAAAAAAAAAAAAAAAAAAAAAAAAAAAAAAAAAAAAAAAATATAAAAAAAAATTAAAAAAAAAAAAAAAAAAAAAAAAAAAAAAAAAAAAAAAAAAAAAAAAAAAAAAAA
Regarding B3, in data set [4], the ID %/tissue blood stood at 8.48 ID %/tissue, the ID %/tissue kidney is 0.17 ID %/tissue, the ID %/tissue liver came to 31.62 ID %/tissue and the ID %/tissue lung was 0.18 ID %/tissue. The same molecule returned an ID %/tissue spleen in data set [4] of 4.18 ID %/tissue. In data set [2] (Table 11), this molecule showed a Number-average particle diameter of 67.2 nm, a PdI of 0.192, a ζ-average of 128.4 nm and a ζ-potential of 3.49 mV. The Encapsulation rate in data set [3] (Table 11) was 89.4%.

B4: ssODN-TTR_3-24° C.-5′: ssODN pairing with sgTTR-G211, mismatch on one side; SEQ ID NO 19 (nucleic acid)
DNA: AAAAAAAAAAAAAAAAAAAAAAAAAAAAAAAAAAAAAAAAAAAAAAAAAAAAAAAATGCTGTAGTAAAAAAAAATTAAAAAAAAAAAAAAAAAAAAAAAAAAAAAAAAAAAAAAAAAAAAAAAAAAAAAAAA
For the molecule B4, in the data set on TTR gene, the “serum TTR (5′ versus 3′ mismatch site)” value is listed as “about the same”. In data set [2] (Table 13), this molecule had a Number-average particle diameter of 76.7 nm, a PdI of 0.147, a ζ-average of 123.5 nm and a ζ-potential of 2.71 mV. The same molecule gave an Encapsulation rate in data set [3] (Table 13) of 61.5%.

B5: ssODN-TTR_3-50° C.-3′: ssODN pairing with sgTTR-G211, mismatch on one side; SEQ ID NO 20 (nucleic acid)
DNA: AAAAAAAAAAAAAAAAAAAAAAAAAAAAAAAAAAAAAAAAAAAAAAAAAAAAAAAATGCTGTAGACGTGGCTAATTAAAAAAAAAAAAAAAAAAAAAAAAAAAAAAAAAAAAAAAAAAAAAAAAAAAAAAAA
B5: the “serum TTR (5′ versus 3′ mismatch site)” value in the data set on TTR gene is “about the same”. In data set [2] (Table 13), this molecule showed a Number-average particle diameter of 79.0 nm, a PdI of 0.166, a ζ-average of 139.9 nm and a ζ-potential of 4.02 mV. Moreover, the Encapsulation rate in data set [3] (Table 13) is listed as 58.7%.
